Laboratory results taken from the RNAGym collection of RNA variant scans (doi:10.7554/elife.90254).

B1: LINE1-full (parent)
chain: UACGUAGGUGGUUUUCCCCUGAUAGUGCUAAGGGGGCCUGGAAGUUUGGACUGGGCAGAGCUCAACACAGCGUGGCAAAGUGGCUGUGGCUAGACUGCCUCUCUGGAUUCCUCGUCACUCAGCAGGGCAUCUCUGAGAGAAAUGCC

Variants of: B1
Test: self-cleavage, relative activity (ratio to wild type); higher = more cleavage; in vitro, sequencing; the parent is a self-cleaving ribozyme

In order of rising self-cleavage:
1. A67C U108C  0
2. A67G U96C  0
3. A67C C71A  0.02
4. A67G G89U  0.02
5. A67G G93A  0.02
6. A67C A138U  0.03
7. A67C U102C  0.04
8. A67C U104C  0.04
9. A67C U115A  0.04
10. A67G A129U  0.04
11. A67G C84G  0.04
12. A67G C84U  0.04
13. A67C C110A  0.05
14. A67C G82A  0.05
15. A67C G135U  0.05
16. A67C U87A  0.05
17. A67G C68A  0.05
18. A67G G88A  0.05
19. A67C G72U  0.06
20. A67G U96A  0.06
21. A67C C123A  0.07
22. A67C U119C  0.09
23. A67G A92G  0.09
24. A67G A94G  0.09
25. A67G G93U  0.11
26. A67C A141G  0.12
27. A67C U96C  0.12
28. A67G U87A  0.12
29. A67G U91C  0.16
30. A67G U109C  0.16
31. A67C U73C  0.22
32. A67G A107G  0.25
33. A67G A78G  0.27
34. A67G C99U  0.27
35. A67G A77U  0.3
36. A67G A69G  0.31
37. A67G U119A  0.31
38. A67G U81C  0.35
39. A67G A136C  0.38
40. A67G A141G  0.38
41. A67G G114A  0.38
42. A67G G125U  0.39
43. A67G U112C  0.39
44. A67G A136U  0.4
45. A67G U100C  0.4
46. A67G A92U  0.41
47. A67G C133A  0.41
48. A67G C113U  0.44
49. A67G A129G  0.45
50. A67G C113A  0.45
51. A67G C120U  0.45
52. A67G G74A  0.45
53. A67G A142G  0.46
54. A67G A79C  0.48
55. A67G A124U  0.49
56. A67G G114C  0.49
57. A67G  0.5
58. A67G A121U  0.51
59. A67G A117G  0.52
60. A67G A117U  0.53
61. A67G A121G  0.53
62. A67G U112A  0.53
63. A67G C111U  0.54
64. A67G G122A  0.54
65. A67G U130A  0.54
66. A67G U115C  0.55
67. A67G A140U  0.56
68. A67G C131U  0.56
69. A67G C111A  0.58
70. A67G G126A  0.58
71. A67G U102C  0.58
72. A67G U115A  0.61
73. A67G U132C  0.62
74. A67G G137A  0.64
75. A67G U130C  0.65
76. A67G A136G  0.67
77. A67G A79U  0.73
78. A67G G80A  0.79
79. A67G A107U  0.92
80. A67G A142C  0.93
81. A67G U104C  0.96
82. A67G U102A  0.99
83. A67G U119C  1.07
84. A67G U115G  1.22
